# Measurements: paper PMC3996484, “Apoptosis Therapy in Cancer: The First Single-molecule Co-activating p53 and the Translocator Protein in Glioblastoma” (Scientific Reports, 2014)
# B1: recombinant human His-tagged N-terminal region of MDM2 (residues 1-118) (domain or fragment, UniProt Q00987 1-118, looked up)
# chain: MCNTNMSVPTDGAVTTSQIPASEQETLVRPKPLLLKLLKSVGAQKDTYTMKEVLFYLGQYIMTKRLYDEKQQHIVYCSNDLLGDLFGVPSFSVKEHRKIYTMIYRNLVVVNQQESSDS
# notes: MDM2 (murine double minute 2), human, N-terminal region, residues 1-118; Cloned in a derivative of the vector pET-46Ek/LIC (Novagen); also called murine double minute 2
# Molecular target: T1, recombinant human His-tagged p53 protein (residues 1-312) (human, UniProt P04637 1-312)
# T1 construct: p53 tumor suppressor, human, residues 1-312; source: final buffer with 0.2 mM ZnCl2
# Assay: NMR titration; AIDA, 1D proton NMR of tryptophan side chain NH-epsilon signals of p53 alone and of the MDM2/p53 complex; 0.1 mM proteins, 20 mM TrisHCl, 150 mM KCl, pH 7.4, 5 mM beta-mercaptoethanol, 0.02% NaN3, 25°C, 700 MHz
# Settings: both partners purified
# T1 sequence (P04637 1-312): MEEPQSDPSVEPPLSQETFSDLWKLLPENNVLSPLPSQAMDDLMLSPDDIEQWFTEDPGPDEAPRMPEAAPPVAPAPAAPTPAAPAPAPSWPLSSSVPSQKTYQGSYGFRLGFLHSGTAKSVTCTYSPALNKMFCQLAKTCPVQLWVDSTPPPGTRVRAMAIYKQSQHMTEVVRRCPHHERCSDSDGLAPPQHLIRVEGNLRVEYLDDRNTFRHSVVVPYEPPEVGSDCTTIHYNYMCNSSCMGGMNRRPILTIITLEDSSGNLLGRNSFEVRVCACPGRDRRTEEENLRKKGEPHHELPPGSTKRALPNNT
binder,measurement,value
B1,binding result,binds
